Experiment [1] concerns the target Chara myosin heavy chain (Chara corallina (Chara australis) (endogenous in internodal cells)). Put plainly: SEC; partially purified Chara myosin on Superdex 200HR in 50 mM Tris-HCl pH 8.0, 2 mM MgCl2, 1 mM EGTA, 4 mM ATP, 1 mM DTT; peak fraction No. 20 concentrated and run on SDS-PAGE, stained with coomassie brilliant blue; molar ratios roughly estimated.
Experiment [2] shares this target.
For experiment [3] the target is unchanged. This is another data set of the same source.

Regarding “18 kDa polypeptide of Chara myosin (natural protein)”, the stoichiometry N (molar ratio to the heavy chain) in experiment [1] is 2.5.

“20 kDa polypeptide of Chara myosin (natural protein)”: in experiment [1], the stoichiometry N (molar ratio to the heavy chain) was 0.7.

Take “bovine calmodulin (from UniProt P62157 1-149) (natural protein)”: in experiment [2], the sliding velocity of F-actin on Chara myosin in the in vitro motility assay; increase over the standard buffer on adding 0.1 mM Ca++ and 0.1 mg/ml calmodulin; reversible on washing out came to 35%; the sliding velocity of F-actin on Chara myosin in the in vitro motility assay; increase over the standard buffer on adding 0.1 mg/ml calmodulin amounted to 24%. In experiment [3], this substance showed an actin activated ATPase of column purified Chara myosin; increase on adding both Ca++ and calmodulin of 91%; an actin activated ATPase of column purified Chara myosin; increase on adding calmodulin of 24%.

The values are drawn from publication PMC3410491.
